Test results as given in EP1869192B1 (MedImmune, LLC, dated 2016).
One block for each molecule: values may come before it.

How the values were obtained:
[1] = molecular target: Human EphA2-Fc fusion protein (human EphA2 fused with the Fc portion of a human IgG1) (human) (UniProt P29317); experiment: single point ELISA: 1 ug goat anti-human Fd capture, biotinylated human EphA2-Fc 300-600 ng/well, neutravidin-HRP
[2] = molecular target: Human EphA2-Fc fusion protein (human EphA2 fused with the Fc portion of a human IgG1) (human) (UniProt P29317); experiment: single point ELISA: periplasmic Fab captured on 500 ng goat anti-human Fab, biotinylated human EphA2-Fc 300 ng/well, neutravidin-HRP
[3] = molecular target: Human EphA2-Fc fusion protein (human EphA2 fused with the Fc portion of a human IgG1) (human) (UniProt P29317); experiment: SPR (BIAcore 3000), EphA2-Fc amine-coupled to CM5 chip, IgG in solution, 25 C, 1:1 Langmuir fit
[4] = molecular target: Human EphA2-Fc fusion protein (human EphA2 fused with the Fc portion of a human IgG1) (human) (UniProt P29317); experiment: SPR (BIAcore), human IgG1 format on immobilized EphA2-Fc
[5] = molecular target: Human EphA2-Fc fusion protein (human EphA2 fused with the Fc portion of a human IgG1) (human) (UniProt P29317); experiment: SPR (BIAcore 3000), EphA2-Fc amine-coupled to CM5 chip, IgG in solution, 25 C, KD = koff/kon
[6] = molecular target: T1, Human EphA2-Fc fusion protein (human EphA2 fused with the Fc portion of a human IgG1) (human, UniProt P29317 24-534, limits assumed); experiment: SPR (BIAcore 3000), EphA2-Fc amine-coupled to CM5 chip (about 500 RU), IgG in solution, 25 C, KD = koff/kon
T1 construct: also called biotinylated human EphA2-Fc; not shown: Fc portion of a human IgG1

[7] = molecular target: T1, Human EphA2-Fc fusion protein (human …); experiment: SPR (BIAcore 3000), EphA2-Fc amine-coupled to CM5 chip (about 500 RU), IgG in solution, 25 C, 1:1 Langmuir fit
[8] = molecular target: Human EphA2-Fc fusion protein (human EphA2 fused with the Fc portion of a human IgG1) (human) (UniProt P29317); experiment: as above
[9] = molecular target: Human EphA2-Fc fusion protein (human EphA2 fused with the Fc portion of a human IgG1) (human) (UniProt P29317); experiment: SPR (BIAcore 3000), EphA2-Fc amine-coupled to CM5 chip (about 500 RU), IgG in solution, 25 C, KD = koff/kon
[10] = molecular target: Human EphA2-Fc fusion protein (human EphA2 fused with the Fc portion of a human IgG1) (human) (UniProt P29317); experiment: single point ELISA: periplasmic extract of 45 ml culture, 1 ug/well goat anti-human Fd capture, biotinylated EphA2-Fc
[11] = molecular target: Human EphA2-Fc fusion protein (human EphA2 fused with the Fc portion of a human IgG1) (human) (UniProt P29317); experiment: second single point ELISA: periplasmic extract of 15 ml culture, 1 ug/well goat anti-human Fd capture, biotinylated EphA2-Fc
[12] = molecular target: Human EphA2-Fc fusion protein (human EphA2 fused with the Fc portion of a human IgG1) (human) (UniProt P29317); experiment: single point ELISA: periplasmic Fab captured on 1 ug goat anti-human Fd, biotinylated human EphA2-Fc 300-600 ng/well, neutravidin-HRP

Human EphA2-Fc fusion protein (human EphA2 fused with the Fc portion of a human IgG1) (human), sequence (P29317 24-534 limits assumed): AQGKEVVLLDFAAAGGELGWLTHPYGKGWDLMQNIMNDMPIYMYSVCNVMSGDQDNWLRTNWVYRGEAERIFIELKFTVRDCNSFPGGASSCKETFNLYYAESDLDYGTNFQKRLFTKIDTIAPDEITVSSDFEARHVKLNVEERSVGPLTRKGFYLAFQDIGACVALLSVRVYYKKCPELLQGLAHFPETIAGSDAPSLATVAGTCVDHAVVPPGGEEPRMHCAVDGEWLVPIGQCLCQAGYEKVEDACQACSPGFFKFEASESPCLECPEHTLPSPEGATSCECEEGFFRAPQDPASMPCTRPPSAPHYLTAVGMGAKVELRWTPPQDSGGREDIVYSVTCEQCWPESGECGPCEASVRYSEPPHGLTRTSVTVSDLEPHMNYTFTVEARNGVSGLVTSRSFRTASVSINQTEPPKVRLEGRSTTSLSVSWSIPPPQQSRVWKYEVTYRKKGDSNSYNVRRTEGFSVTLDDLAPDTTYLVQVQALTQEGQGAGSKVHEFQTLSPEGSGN
T1 sequence (P29317 24-534 limits assumed): as above

B1: Fab clone VH-2G6/VL-12C8 (Fab, from another filing, V domains shown)
VH: EVQLVESGGGVVRPGGSLRLSCAASGFTVSDYSMNWVRQAPGKGLEWIGFIRNKANDYTTEYSASVKGRFTISRDDSKNTLYLQMNSLKTEDTAVYYCTTYPRYHAMDSWGQGTMVTVSS
VL: AIQLTQSPSSLSASVGDRVTITCRASQSISNNLHWYLQKPGQSPQLLIYYVFQSISGVPSRFSGSGSGTDFTLTISSLQPEDFATYYCQQSNSWPLTFGGGTKLEIK
OD450 [2]: 2.8 OD450

B2: VH-2G6/VL-12C8 as full length human IgG1 (antibody, from another filing, V domains shown)
VH: EVQLVESGGGVVRPGGSLRLSCAASGFTVSDYSMNWVRQAPGKGLEWIGFIRNKANDYTTEYSASVKGRFTISRDDSKNTLYLQMNSLKTEDTAVYYCTTYPRYHAMDSWGQGTMVTVSS
VL: AIQLTQSPSSLSASVGDRVTITCRASQSISNNLHWYLQKPGQSPQLLIYYVFQSISGVPSRFSGSGSGTDFTLTISSLQPEDFATYYCQQSNSWPLTFGGGTKLEIK
koff [3]: 0.00019 s⁻¹
kon [3]: 64000 M⁻¹ s⁻¹
fold decrease of avidity against parental mAb B233 [4]: 10 fold
Kd [5]: 3 nM

B3: Fab clone VH-6H11/VL-8G7 (Fab, from another filing, V domains shown)
VH: EVQLVESGGGLVQPGGSLRLSCAASGFTFSDYSMNWVRQAPGKGLEWVAFIRNKANDYTTEYSASVKGRFTISRDNSKNTLYLQMNSLRAEDTAMYYCARYPRYHAMDSWGQGTLVTVSS
VL: EIVLTQSPATLSVSPGERATLSCRASQSISNNLHWYQQKPGKAPKSLIYYVFQSISGVPSRFSGSGSGTDFTLTINSLEAEDAATYYCQQSNSWPLTFGGGTKVDIK
OD450 [2]: 2.5 OD450

B8: Fab clone 4H5 (VH-4H5/VL-4H5) (Fab, from another filing, V domains shown)
VH: QVQLLESGGGLVQPGGSLRLSCAASGFTFSSYTMSWVRQAPGQALEWMGTISSGGTYTYYPDSVKGRFTISRDNAKNSLYLQMNSLRAEDTAVYYCAREAIFTYWGRGTLVTVSS
VL: DIQLTQSPSSLSASVGDRVTITCKASQDINNYLSWYQQKPGQAPRLLIYRANRLVDGVPDRFSGSGYGTDFTLTINNIESEDAAYYFCLKYDVFPYTFGQGTKVEIK
[specific OD450/background OD450] ratio [10]: 23
[specific OD450/background OD450] ratio [11]: 30
OD450 [12]: 3 OD450
fold signal above background of the irrelevant antibody [12]: 10 fold

B9: Fab "corrected" clone 4H5 (VH-4H5/VL-"corrected" 4H5) (Fab, from another filing, V domains shown)
VH: QVQLLESGGGLVQPGGSLRLSCAASGFTFSSYTMSWVRQAPGQALEWMGTISSGGTYTYYPDSVKGRFTISRDNAKNSLYLQMNSLRAEDTAVYYCAREAIFTYWGRGTLVTVSS
VL: DIQLTQSPSSLSASVGDRVTITCKASQDINNYLSWYQQKPGQAPRLLIYRANRLVDGVPDRFSGSGYGTDFTLTINNIESEDAAYYFCLKYDEFPYTFGQGTKVEIK
[specific OD450/background OD450] ratio [10]: 11

The remaining lines, values ahead:

OD450 (background signal) [1]: 0.3 OD450
Molecule: irrelevant antibody (Example 2)

koff [3]: 0.00018 s⁻¹
kon [3]: 96000 M⁻¹ s⁻¹
fold decrease of avidity against parental mAb B233 [4]: 6 fold
Kd [5]: 1.9 nM
B4: VH-6H11/VL-8G7 as full length human IgG1 (antibody, from another filing, V domains shown)
VH: EVQLVESGGGLVQPGGSLRLSCAASGFTFSDYSMNWVRQAPGKGLEWVAFIRNKANDYTTEYSASVKGRFTISRDNSKNTLYLQMNSLRAEDTAMYYCARYPRYHAMDSWGQGTLVTVSS
VL: EIVLTQSPATLSVSPGERATLSCRASQSISNNLHWYQQKPGKAPKSLIYYVFQSISGVPSRFSGSGSGTDFTLTINSLEAEDAATYYCQQSNSWPLTFGGGTKVDIK

Kd [6]: 5.94 nM
koff [7]: 0.00307 s⁻¹
kon [7]: 517000 M⁻¹ s⁻¹
B5: mAb EA2 (murine anti-human EphA2 monoclonal antibody) (antibody, V domains shown)
VH: DVKLVESGGGLVKPGGSLKLSCAASGFTFSSYTMSWVRQTPEKRLEWVATISSGGTYTYYPDSVKGRFTISRDNAKNTLYLQMSSLKSEDTAMYYCTREAIFTYWGQGTLVTVSA
VL: DIKMTQSPSSMYASLGERVTITCKASQDINNYLSWFQQKPGKSPKTLIYRANRVDGVPSRFSGSGSGQDYSLTISSLEYEDMGIYYCLKYDEFPYTFGGGTKLEIK

fold increase of avidity against parental mAb EA2 [4]: 90 fold
B6: VH-4H5/VL-4H5 as human IgG1 (antibody, from another filing, V domains shown)
VH: QVQLLESGGGLVQPGGSLRLSCAASGFTFSSYTMSWVRQAPGQALEWMGTISSGGTYTYYPDSVKGRFTISRDNAKNSLYLQMNSLRAEDTAVYYCAREAIFTYWGRGTLVTVSS
VL: DIQLTQSPSSLSASVGDRVTITCKASQDINNYLSWYQQKPGQAPRLLIYRANRLVDGVPDRFSGSGYGTDFTLTINNIESEDAAYYFCLKYDVFPYTFGQGTKVEIK

koff [8]: 0.00105 s⁻¹
kon [8]: 750000 M⁻¹ s⁻¹
fold increase of avidity against parental mAb EA2 [4]: 4 fold
Kd [9]: 1.4 nM
B7: VH-4H5/VL-"corrected" 4H5 as human IgG1 (antibody, from another filing, V domains shown)
VH: QVQLLESGGGLVQPGGSLRLSCAASGFTFSSYTMSWVRQAPGQALEWMGTISSGGTYTYYPDSVKGRFTISRDNAKNSLYLQMNSLRAEDTAVYYCAREAIFTYWGRGTLVTVSS
VL: DIQLTQSPSSLSASVGDRVTITCKASQDINNYLSWYQQKPGQAPRLLIYRANRLVDGVPDRFSGSGYGTDFTLTINNIESEDAAYYFCLKYDEFPYTFGQGTKVEIK
